Assays:
HeLa Kyoto [1] = experiment: solubility in G1/S (NP-40 vs SDS abundance) (log2 ratio); higher = more soluble; conditions: cell cycle stage: G1/S
HeLa Kyoto [2] = experiment: solubility change mitosis vs G1/S (difference of NP-40 vs SDS log2 ratios) (log2 ratio difference); higher = more soluble in mitosis
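For solubility change mitosis vs G1/S (difference of NP-40 vs SDS log2 ratios) in this document: synchronized HeLa Kyoto cells (double thymidine block for G1/S, nocodazole release for mitosis), protein amounts in NP-40 versus SDS lysates quantified by mass spectrometry, three biological replicates.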
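For solubility in G1/S (NP-40 vs SDS abundance) in this document: HeLa Kyoto cells arrested at G1/S by double thymidine block, proteins quantified by TMT10plex mass spectrometry in mild NP-40 versus SDS extracts, three biological replicates.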

Sequence | solubility in G1/S (log2) (HeLa Kyoto [1]) | solubility change mitosis (log2) (HeLa Kyoto [2])
MSRRTRCEDLDELHYQDTDSDVPEQRDSKCKVKWTHEEDEQLRALVRQFGQQDWKFLASHFPNRTDQQCQYRWLRVLNPDLVKGPWTKEEDQKVIELVKKYGTKQWTLIAKHLKGRLGKQCRERWHNHLNPEVKKSCWTEEEDRIICEAHKVLGNRWAEIAKMLPGRTDNAVKNHWNSTIKRKVDTGGFLSESKDCKPPVYLLLELEDKDGLQSAQPTEGQGSLLTNWPSVPPTIKEEENSEEELAAATTSKEQEPIGTDLDAVRTPEPLEEFPKREDQEGSPPETSLPYKWVVEAANLLIPAVGSSLSEALDLIESDPDAWCDLSKFDLPEEPSAEDSINNSLVQLQASHQQQVLPPRQPSALVPSVTEYRLDGHTISDLSRSSRGELIPISPSTEVGGSGIGTPPSVLKRQRKRRVALSPVTENSTSLSFLDSCNSLTPKSTPVKTLPFSPSQFLNFWNKQDTLELESPSLTSTPVCSQKVVVTTPLHRDKTPLHQKHAAFVTPDQKYSMDNTPHTPTPFKNALEKYGPLKPLPQTPHLEEDLKEVLRSEAGIELIIEDDIRPEKQKRKPGLRRSPIKKVRKSLALDIVDEDVKLMMSTLPKSLSLPTTAPSNSSSLTLSGIKEDNSLLNQGFLQAKPEKAAVAQKPRSHFTTPAPMSSAWKTVACGGTRDQLFMQEKARQLLGRLKPSHTSRTLILS [MYBL2] | 0.219 | -0.187
MSTTLLSAFYDVDFLCKTEKSLANLNLNNMLDKKAVGTPVAAAPSSGFAPGFLRRHSASNLHALAHPAPSPGSCSPKFPGAANGSSCGSAAAGGPTSYGTLKEPSGGGGTALLNKENKFRDRSFSENGDRSQHLLHLQQQQKGGGGSQINSTRYKTELCRPFEESGTCKYGEKCQFAHGFHELRSLTRHPKYKTELCRTFHTIGFCPYGPRCHFIHNADERRPAPSGGASGDLRAFGTRDALHLGFPREPRPKLHHSLSFSGFPSGHHQPPGGLESPLLLDSPTSRTPPPPSCSSASSCSSSASSCSSASAASTPSGAPTCCASAAAAAAAALLYGTGGAEDLLAPGAPCAACSSASCANNAFAFGPELSSLITPLAIQTHNFAAVAAAAYYRSQQQQQQQGLAPPAQPPAPPSATLPAGAAAPPSPPFSFQLPRRLSDSPVFDAPPSPPDSLSDRDSYLSGSLSSGSLSGSESPSLDPGRRLPIFSRLSISDD [ZFP36L2] | 0.322 | -0.261
MSYRRELEKYRDLDEDEILGALTEEELRTLENELDELDPDNALLPAGLRQKDQTTKAPTGPFKREELLDHLEKQAKEFKDREDLVPYTGEKRGKVWVPKQKPLDPVLESVTLEPELEEALANASDAELCDIAAILGMHTLMSNQQYYQALSSSSIMNKEGLNSVIKPTQYKPVPDEEPNSTDVEETLERIKNNDPKLEEVNLNNIRNIPIPTLKAYAEALKENSYVKKFSIVGTRSNDPVAYALAEMLKENKVLKTLNVESNFISGAGILRLVEALPYNTSLVEMKIDNQSQPLGNKVEMEIVSMLEKNATLLKFGYHFTQQGPRLRASNAMMNNNDLVRKRRLADLTGPIIPKCRSGV [TMOD1] | 0.122 | 0.357
MTDPFCVGGRRLPGSSKSGPGKDGSRKEVRLPMLHDPPKMGMPVVRGGQTVPGQAPLCFDPGSPASDKTEGKKKGRPKAENQALRDIPLSLMNDWKDEFKAHSRVKCPNSGCWLEFPSIYGLKYHYQRCQGGAISDRLAFPCPFCEAAFTSKTQLEKHRIWNHMDRPLPASKPGPISRPVTISRPVGVSKPIGVSKPVTIGKPVGVSKPIGISKPVSVGRPMPVTKAIPVTRPVPVTKPVTVSRPMPVTKAMPVTKPITVTKSVPVTKPVPVTKPITVTKLVTVTKPVPVTKPVTVSRPIVVSKPVTVSRPIAISRHTPPCKMVLLTRSENKAPRATGRNSGKKRAADSLDTCPIPPKQARPENGEYGPSSMGQSSAFQLSADTSSGSLSPGSRPSGGMEALKAAGPASPPEEDPERTKHRRKQKTPKKFTGEQPSISGTFGLKGLVKAEDKARVHRSKKQEGPGPEDARKKVPAAPITVSKEAPAPVAHPAPGGPEEQWQRAIHERGEAVCPTCNVVTRKTLVGLKKHMEVCQKLQDALKCQHCRKQFKSKAGLNYHTMAEHSAKPSDAEASEGGEQEERERLRKVLKQMGRLRCPQEGCGAAFSSLMGYQYHQRRCGKPPCEVDSPSFPCTHCGKTYRSKAGHDYHVRSEHTAPPPEEPTDKSPEAEDPLGVERTPSGRVRRTSAQVAVFHLQEIAEDELARDWTKRRMKDDLVPETARLNYTRPGLPTLNPQLLEAWKNEVKEKGHVNCPNDCCEAIYSSVSGLKAHLASCSKGAHLAGKYRCLLCPKEFSSESGVKYHILKTHAENWFRTSADPPPKHRSQDSLVPKKEKKKNLAGGKKRGRKPKERTPEEPVAKLPPRRDDWPPGCRDKGARGSTGRKVGVSKAPEK [ZNF512B] | -0.767 | 0.776
MTEKAPEPHVEEDDDDELDSKLNYKPPPQKSLKELQEMDKDDESLIKYKKTLLGDGPVVTDPKAPNVVVTRLTLVCESAPGPITMDLTGDLEALKKETIVLKEGSEYRVKIHFKVNRDIVSGLKYVQHTYRTGVKVDKATFMVGSYGPRPEEYEFLTPVEEAPKGMLARGTYHNKSFFTDDDKQDHLSWEWNLSIKKEWTE [ARHGDIB] | 0.0837 | -0.0572
MTHTRRKSLPMLSSGLTGRREPLQMEDSNMEQGVEGVEPGMPESPGHLTGRRKNYPLRKRPLVPEKPKACKVLLTRLENVAGPRSADEADELPPDLPKPPSPAPSSEDPGLAQPRKRRLASLNAEALNNLLLEREDTSSLAGTRRSRAGDPHRSRDRDRATGGWSSSKKRPRLGDLGGGSRDLSPEPAPDEGPRRDGDPAPKRLASLNAAAFLKLSQERELPLRLPRAHAEVDGRSTEPPAPKAPRPKWPKVNGKNYPKAWQGASSGEAAGPPGWQGCPDEPWPSATPCGPSVQPSHQPLSKALESPLGLRPHLPLLMGGQAALKPEPGRPGEESPAPKQELHQPSFPTPQLSPLPMPGNPADYNGLCVGPELTALGSFYLYCGQEGLQCGGYSPCPMLPEGKLSPVAAPHEEGLLLAPSSVPSGTPFQHPPWGSSRYCSSEDTGVNGYSICGVLPLSVTHAGTTCGGCPYKMPFAAEGCRSLGQLEFPLPEAGHPASPAHPLLGCPVPSVPPAAEPVPHLQTPTSEPQTVARACPQSAKPPSGSKSGLRTGSSCRHTARSKAARRPSHPKQPRVQRPRPRRRRRRRTNGWVPVGAACEKAVYVLDEPEPAIRKSYQAVERHGETIRVRDTVLLKSGPRKTSTPYVAKISALWENPESGELMMSLLWYYRPEHLQGGRSPSMHEPLQNEVFASRHQDQNSVACIEEKCYVLTFAEYCRFCAMAKRRGEGLPSRKTALVPPSADYSTPPHRTVPEDTDPELVFLCRHVYDFRHGRILKNPQ [BAHD1] | -0.799 | 0.738
MTKKKRENLGVALEIDGLEEKLSQCRRDLEAVNSRLHSRELSPEARRSLEKEKNSLMNKASNYEKELKFLRQENRKNMLLSVAIFILLTLVYAYWTM [CCDC167] | 0.839 | 0.231
MTPLVSRLSRLWAIMRKPRAAVGSGHRKQAASQEGRQKHAKNNSQAKPSACDGMIAECPGAPAGLARQPEEVVLQASVSSYHLFRDVAEVTAFRGSLLSWYDQEKRDLPWRRRAEDEMDLDRRAYAVWVSEVMLQQTQVATVINYYTGWMQKWPTLQDLASASLEEVNQLWAGLGYYSRGRRLQEGARKVVEELGGHMPRTAETLQQLLPGVGRYTAGAIASIAFGQATGVVDGNVARVLCRVRAIGADPSSTLVSQQLWGLAQQLVDPARPGDFNQAAMELGATVCTPQRPLCSQCPVESLCRARQRVEQEQLLASGSLSGSPDVEECAPNTGQCHLCLPPSEPWDQTLGVVNFPRKASRKPPREESSATCVLEQPGALGAQILLVQRPNSGLLAGLWEFPSVTWEPSEQLQRKALLQELQRWAGPLPATHLRHLGEVVHTFSHIKLTYQVYGLALEGQTPVTTVPPGARWLTQEEFHTAAVSTAMKKVFRVYQGQQPGTCMGSKRSQVSSPCSRKKPRMGQQVLDNFFRSHISTDAHSLNSAAQ [MUTYH] | 0.104 | -0.0934
MTPWLGLIVLLGSWSLGDWGAEACTCSPSHPQDAFCNSDIVIRAKVVGKKLVKEGPFGTLVYTIKQMKMYRGFTKMPHVQYIHTEASESLCGLKLEVNKYQYLLTGRVYDGKMYTGLCNFVERWDQLTLSQRKGLNYRYHLGCNCKIKSCYYLPCFVTSKNECLWTDMLSNFGYPGYQSKHYACIRQKGGYCSWYRGWAPPDKSIINATDP [TIMP3] | -0.478 | -0.0173
MTSFEDADTEETVTCLQMTVYHPGQLQCGIFQSISFNREKLPSSEVVKFGRNSNICHYTFQDKQVSRVQFSLQLFKKFNSSVLSFEIKNMSKKTNLIVDSRELGYLNKMDLPYRCMVRFGEYQFLMEKEDGESLEFFETQFILSPRSLLQENNWPPHRPIPEYGTYSLCSSQSSSPTEMDENES [TIFA] | 0.0872 | -0.224
MTSVTRSEIIDEKGPVMSKTHDHQLESSLSPVEVFAKTSASLEMNQGVSEERIHLGSSPKKGGNCDLSHQERLQSKSLHLSPQEQSASYQDRRQSWRRASMKETNRRKSLHPIHQGITELSRSISVDLAESKRLGCLLLSSFQFSIQKLEPFLRDTKGFSLESFRAKASSLSEELKHFADGLETDGTLQKCFEDSNGKASDFSLEASVAEMKEYITKFSLERQTWDQLLLHYQQEAKEILSRGSTEAKITEVKVEPMTYLGSSQNEVLNTKPDYQKILQNQSKVFDCMELVMDELQGSVKQLQAFMDESTQCFQKVSVQLGKRSMQQLDPSPARKLLKLQLQNPPAIHGSGSGSCQ [DSN1] | 0.0805 | -0.12
MTTKNLETKVTVTSSPIRGAGDGMETEEPPKSVEVTSGVQSRKHHSLQSPWKKAVPSESPGVLQLGKMLTEKAMEVKAVRILVPKAAITHDIPNKNTKVKSLGHHKGEFLGQSEGVIEPNKELSEVKNVLEKLKNSERRLLQDKEGLSNQLRVQTEVNRELKKLLVASVGDDLQYHFERLAREKNQLILENEALGRNTAQLSEQLERMSIQCDVWRSKFLASRVMADELTNSRAALQRQNRDAHGAIQDLLSEREQFRQEMIATQKLLEELLVSLQWGREQTYSPSVQPHSTAELALTNHKLAKAVNSHLLGNVGINNQKKIPSTVEFCSTPAEKMAETVLRILDPVTCKESSPDNPFFESSPTTLLATKKNIGRFHPYTRYENITFNCCNHCRGELIAL [BLZF1] | 0.15 | 0.0573
MTTLTHRARRTEISKNSEKKMESEEDSNWEKSPDNEDSGDSKDIRLTLMEEVLLLGLKDKEGYTSFWNDCISSGLRGGILIELAMRGRIYLEPPTMRKKRLLDRKVLLKSDSPTGDVLLDETLKHIKATEPTETVQTWIELLTGETWNPFKLQYQLRNVRERIAKNLVEKGILTTEKQNFLLFDMTTHPVTNTTEKQRLVKKLQDSVLERWVNDPQRMDKRTLALLVLAHSSDVLENVFSSLTDDKYDVAMNRAKDLVELDPEVEGTKPSATEMIWAVLAAFNKS [GOLPH3L] | 0.202 | 0.0306
MVAWRSAFLVCLAFSLATLVQRGSGDFDDFNLEDAVKETSSVKQPWDHTTTTTTNRPGTTRAPAKPPGSGLDLADALDDQDDGRRKPGIGGRERWNHVTTTTKRPVTTRAPANTLGNDFDLADALDDRNDRDDGRRKPIAGGGGFSDKDLEDIVGGGEYKPDKGKGDGRYGSNDDPGSGMVAEPGTIAGVASALAMALIGAVSSYISYQQKKFCFSIQQGLNADYVKGENLEAVVCEEPQVKYSTLHTQSAEPPPPPEPARI [CD99L2] | -0.143 | -0.147
